In PMC4497409 (2015):

Target: hFZD7 (Homo sapiens (Human), UniProt O75084)
Assay: SPR equilibrium, Norrin immobilised, monomeric CRD analyte

Kd: > 100 µM
B1: Norrin (protein)
chain 1: DSDPRRCMRHHYVDSISHPLYKCSSKMVLLARCEGHCSQASRSEPLVSFSTVLKQPFRSSCHCCRPQTSKLKALRLRCSGGMRLTATYRYILSCHCEECNS
chain 2: DSDPRRCMRHHYVDSISHPLYKCSSKMVLLARCEGHCSQASRSEPLVSFSTVLKQPFRSSCHCCRPQTSKLKALRLRCSGGMRLTATYRYILSCHCEECNS
